Consider 1 molecule from EP4692122A1, “HUMANIZED ANTIBODIES TARGETING EPHA10” (priority 2023, dated 2024).

Assay [1] deals with T1, EphA10 fused with human Fc (Homo sapiens, UniProt Q5JZY3).
T1 construct: a vector for expressing an extra cellular domain (ECD) of EphA10 or a FNIII domain of the ECD was produced; made in house; host or cells: Expi293F
T1 sequence (Q5JZY3 34-565 limits assumed): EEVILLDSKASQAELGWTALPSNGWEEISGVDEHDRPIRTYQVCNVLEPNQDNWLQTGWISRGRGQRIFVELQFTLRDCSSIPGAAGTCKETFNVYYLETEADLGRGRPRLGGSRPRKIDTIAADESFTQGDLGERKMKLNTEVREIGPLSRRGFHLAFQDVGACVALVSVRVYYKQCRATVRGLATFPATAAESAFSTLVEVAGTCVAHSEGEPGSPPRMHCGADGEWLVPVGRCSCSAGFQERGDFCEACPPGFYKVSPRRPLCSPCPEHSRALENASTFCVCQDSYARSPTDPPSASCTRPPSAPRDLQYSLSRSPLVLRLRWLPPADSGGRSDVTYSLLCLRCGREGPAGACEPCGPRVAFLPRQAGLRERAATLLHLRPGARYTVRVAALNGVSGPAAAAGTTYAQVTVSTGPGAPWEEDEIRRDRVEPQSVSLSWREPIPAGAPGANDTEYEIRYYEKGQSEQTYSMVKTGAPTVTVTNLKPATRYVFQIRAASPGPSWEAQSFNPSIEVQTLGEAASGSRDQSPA
The assay is described as follows: ELISA analysis of binding activity to EphA10. As to conditions: ELISA (FIG. 11, FIG. 20). As to the method: The binding activity to EphA10 of the five EphA10-binding humanized antibodies purified in Example 3 was analyzed by ELISA. Specifically, 4 µg/ml of EphA10 fused with human Fc was diluted with a 0.05 M Na2CO3 (pH 9.6) solution and immobilized in 50 µl of a Flat Bottom Polystyrene High Bind 96-well microplate (costar) at 4°C for 16 hours, and then blocked with 100 µl of 4% skim milk (GenomicBase) at room temperature for 2 hours. […] 50 µl of a 1-Step Ultra TMB-ELISA substrate solution (Thermo Fisher Scientific) was added to develop color, and then added with 50 µl each of 2 M H2SO4 to terminate the reaction, and then analyzed using an Epoch microplate spectrophotometer (BioTek). […]
As the sequencing result, it was confirmed that a free cysteine amino acid that was not involved in disulfide bonds existed in the CDR region of the light chain of the EphA10-specific humanized antibody (FIG. 10). […] To verify this, the binding activities of EphA10-specific humanized antibody 1-1 and EphA10-targeting ADC antibody 1-1 (ADC) after ADC production were analyzed and compared by ELISA.
In Example 8 above, the binding activity to EphA10 of antibodies 1-1-A, 1-1-S, 1-2-A, and 1-2-S, in which the free cysteines present in the light chains of two types of EphA10-specific humanized antibodies 1-1 and 1-2 were substituted with serines and alanines, was analyzed by ELISA. […]

The subject of assay [2] is hEphA10 overexpressing cell line. The assay can be described thus: Cancer cell killing by cell survival analysis using ATP measurement (CellTiter-Glo). Type of assay: cell-based, human. As to conditions: stated as a consequence of the lost EphA10 binding of the ADC (FIG. 11). As to the method: To confirm the efficacy of ADC in vitro, a cancer cell killing effect was confirmed through cell survival analysis using ATP measurement. Specifically, MDA-MB-231 naive cells (control group), a mock cell line (negative control group), and a hEphA10 overexpressing cell line were dispensed at 2 × 10^4 per well in a 96-well white plate (SPL), respectively, and the following day, the ADC produced in Example 6 was diluted in RPMI (Capricorn) for each concentration, treated by 100 µl per well, and then incubated at 37°C for 48 hours. The ADC-treated plate was incubated at room temperature outside the incubator for 5 minutes, 50 µl of a CellTiter-Glo solution was added to each well, and then the plate was shaken at 500 rpm for 2 minutes. After reacting for 10 minutes on a room temperature bench in a light-blocked state, ATP was measured using a Synergy HTX multimode reader (Biotek).
To verify the effect of two types of EphA10-targeting ADCs A7-MMAE and 2W_MMAE produced using A7 and 2W antibodies, cell viability analysis of cancer cells was performed by measuring ATP as in Example 7-1 above.
On the technique in general: ATP-based viability assays read luminescence as a measure of living cells.

B1: 1-1 (ADC) (conjugate)
VH: QVTLKESGPTLVKPTQTLTLTCTFSGFSLSTSGMGVGWIRQPPGKALEWLAHIWWDDVKRYNPALKSRLTITKDTSKNQVVLTMTNMDPVDTATYYCARTSFPAGVDYWGQGTLVTVSS
VL: DVVMTQSPLSLPVTLGQPASISCRSSQSLQNSNGNTCLNWFQQRPGQSPRRLIYRVSNRFSGVPDRFSGSGSGTDFTLKISRVEAEDVGVYYCLQVTHVPFTFGQGTKLEIKR
modifications: non-natural residues
Regarding B1, the “EphA10 binding activity of the ADC compared with the antibody before ADC production” value in assay [1] is on record as “greatly reduced”. Besides, the “in vitro ADC efficacy” value in assay [2] is “greatly reduced”.
